Data on 1 molecule can be found in paper PMC12135937.

What all share (experiment): SPR; Biacore T100, CM4 chip; DIPs immobilised by amine coupling (700-900 RU), monomeric Dpr analytes in 3-fold dilution series (0.012 to 9, 27 or 81 µM); 25 °C; 10 mM Tris-HCl pH 7.2, 150 mM NaCl, 1 mM EDTA, 1 mg/mL BSA, 0.01% Tween-20; equilibrium responses fit to a 1:1 model
The target of experiment [1] is DIP-α (Drosophila melanogaster) (UniProt Q9W4R3).
The target of experiment [2] is DIP-β isoform C (Drosophila melanogaster).
The target of experiment [3] is DIP-λ (Drosophila melanogaster).
DIP-λ (Drosophila melanogaster), sequence (main, as listed by the source): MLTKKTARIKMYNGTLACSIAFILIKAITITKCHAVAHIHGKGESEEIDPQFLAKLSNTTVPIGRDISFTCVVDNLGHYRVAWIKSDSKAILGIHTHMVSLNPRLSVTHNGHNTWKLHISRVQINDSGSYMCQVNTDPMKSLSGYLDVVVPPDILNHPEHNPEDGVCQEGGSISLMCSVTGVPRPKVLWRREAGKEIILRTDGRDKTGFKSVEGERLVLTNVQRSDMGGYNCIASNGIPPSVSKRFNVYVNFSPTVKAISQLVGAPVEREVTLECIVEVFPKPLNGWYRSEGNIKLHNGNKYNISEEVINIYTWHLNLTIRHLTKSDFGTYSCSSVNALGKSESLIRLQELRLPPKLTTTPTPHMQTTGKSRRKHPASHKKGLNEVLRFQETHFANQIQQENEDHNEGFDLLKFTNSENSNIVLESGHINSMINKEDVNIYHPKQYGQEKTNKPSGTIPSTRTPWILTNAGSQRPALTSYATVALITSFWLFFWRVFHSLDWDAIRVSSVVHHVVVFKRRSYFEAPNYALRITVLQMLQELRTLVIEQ

DIP-α (Drosophila melanogaster), sequence (Q9W4R3 entry or part of it): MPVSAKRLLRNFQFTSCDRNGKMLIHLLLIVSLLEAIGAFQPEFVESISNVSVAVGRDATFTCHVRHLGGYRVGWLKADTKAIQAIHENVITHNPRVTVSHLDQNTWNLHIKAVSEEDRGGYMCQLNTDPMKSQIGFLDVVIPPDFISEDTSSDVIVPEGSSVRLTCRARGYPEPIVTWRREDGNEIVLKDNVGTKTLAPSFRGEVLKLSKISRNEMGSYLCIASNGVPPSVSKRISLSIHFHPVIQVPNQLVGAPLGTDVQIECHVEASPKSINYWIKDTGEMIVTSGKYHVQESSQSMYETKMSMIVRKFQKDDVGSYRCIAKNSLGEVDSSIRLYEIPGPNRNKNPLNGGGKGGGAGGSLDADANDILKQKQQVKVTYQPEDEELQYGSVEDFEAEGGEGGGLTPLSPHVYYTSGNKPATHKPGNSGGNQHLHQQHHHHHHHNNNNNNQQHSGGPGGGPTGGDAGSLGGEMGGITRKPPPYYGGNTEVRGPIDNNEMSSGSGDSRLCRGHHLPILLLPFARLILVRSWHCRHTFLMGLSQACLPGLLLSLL
DIP-β isoform C (Drosophila melanogaster), sequence (main, as listed by the source): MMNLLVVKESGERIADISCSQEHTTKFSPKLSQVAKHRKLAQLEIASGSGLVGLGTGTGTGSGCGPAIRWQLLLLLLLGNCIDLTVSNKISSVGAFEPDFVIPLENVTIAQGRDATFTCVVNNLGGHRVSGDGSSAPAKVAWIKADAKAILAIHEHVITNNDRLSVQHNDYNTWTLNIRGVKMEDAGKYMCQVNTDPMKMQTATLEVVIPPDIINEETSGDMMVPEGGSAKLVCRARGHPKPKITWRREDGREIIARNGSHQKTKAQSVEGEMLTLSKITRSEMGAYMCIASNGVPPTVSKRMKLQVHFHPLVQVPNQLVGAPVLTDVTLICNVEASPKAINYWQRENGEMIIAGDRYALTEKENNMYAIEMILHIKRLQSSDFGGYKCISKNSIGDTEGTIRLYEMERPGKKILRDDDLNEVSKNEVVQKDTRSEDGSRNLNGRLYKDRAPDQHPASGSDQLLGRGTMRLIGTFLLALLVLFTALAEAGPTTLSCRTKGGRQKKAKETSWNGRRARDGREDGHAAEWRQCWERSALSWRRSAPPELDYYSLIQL

B1: Dpr10 isoform A (domain or fragment)
chain: WNEPYFDLTMPRNITSLVGKSAYLGCRVKHLGNKTVAWIRHRDLHILTVGTYTYTTDQRFQTSYHRDIDEWTLQIKWAQQRDAGVYECQISTQPVRSYSVNLNIVDLIDAETSDIMQQYYNDDAFYIAENRVYQSSNDEFAGMFGPIQTVAVPTATILGGPDLYVDKGSTINLTCIIKFSPEPPTHIFWYHQDKVLSEETSGGRLKFKTIKSEETKSILLIYDADLLHSGKYSCYPSNTEIASIRVHVLQGE
Regarding B1, the results for the Kd in experiment [1], in experiment [2] and in experiment [3] were 1.34 µM, 84 µM and 5.84 µM, respectively.

Broadly, the Kd is the equilibrium constant for the complex coming apart.
